Data: PMC11208909

Target: TOPBP1 (UniProt Q92547)
Test: co-IP of FLAG-HTATSF1 with endogenous TOPBP1
Settings: reference: wild type; sites S748

## HIV Tat-specific factor 1 (HTATSF1) (from UniProt O43719) S748A
  binding against the reference: lost
